Data: patent US20200299408A1 (Genentech, published 2020)

How the values were obtained:
[1] = target: T1, single chain human CD3ε-26mer-CD3γ (CD3εγ) (human); test: monovalent binding affinity, method not stated on the sheet; column huCD3εγ
T1 construct: also called human CD3εγ
T1 chain: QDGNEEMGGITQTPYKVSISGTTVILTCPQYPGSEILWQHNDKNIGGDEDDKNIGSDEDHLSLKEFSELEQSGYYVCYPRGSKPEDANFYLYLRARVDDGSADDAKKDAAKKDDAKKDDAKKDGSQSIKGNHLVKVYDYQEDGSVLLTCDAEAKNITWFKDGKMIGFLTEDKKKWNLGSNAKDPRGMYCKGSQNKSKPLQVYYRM

M7A = target: T2, M7A; test: SPR (Biacore 4000): CD3εγ variant captured from the periplasmic fraction on UCHT1v9; analyte a bispecific antibody with one 38E4v1 arm and one irrelevant arm, 0.39-100 nM
T2 construct: Residue number counts from the N-terminus of CD3ε; also called CD3εγ M7A
T2 single chain CD3ε-26mer linker-CD3γ: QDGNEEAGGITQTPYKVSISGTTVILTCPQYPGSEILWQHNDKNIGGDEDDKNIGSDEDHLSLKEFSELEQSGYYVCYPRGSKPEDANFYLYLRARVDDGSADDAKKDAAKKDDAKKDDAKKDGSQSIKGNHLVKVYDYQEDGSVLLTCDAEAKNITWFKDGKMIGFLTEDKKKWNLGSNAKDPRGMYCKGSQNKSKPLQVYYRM
Method: (§1) The secreted CD3εγ variants were captured from the crude periplasmic fraction using anti-CD3 antibody UCHT1v9. UCHT1v9 was immobilized on a CM5 serios S chip through amine coupling using the anti-human IgG (Fc) antibody capture kit (BR-1008-39) from GE Healthcare. SPR measurements were performed on the Biacore 4000 instrument, utilizing kinetic evaluation software. In order to measure monovalent binding affinities, anti-CD3 bispecific antibodies were used in which one arm was the anti-CD3 to be tested and the arm recognized an irrelevant antigen. The bispecific anti-CD3 antibodies were passed over the captured supernatant in a concentration series of two-fold dilutions from 0.39 to 100 nM. The resulting kinetics (FIG. 13D) were measured and calculated using Biacore 4000 BIAevaluation software (product code 28-9664-57).

N4A = target: T3, N4A; test: as above
T3 construct: Residue number counts from the N-terminus of CD3ε; also called CD3εγ N4A; CD3 mutant N4A
T3 single chain CD3ε-26mer linker-CD3γ: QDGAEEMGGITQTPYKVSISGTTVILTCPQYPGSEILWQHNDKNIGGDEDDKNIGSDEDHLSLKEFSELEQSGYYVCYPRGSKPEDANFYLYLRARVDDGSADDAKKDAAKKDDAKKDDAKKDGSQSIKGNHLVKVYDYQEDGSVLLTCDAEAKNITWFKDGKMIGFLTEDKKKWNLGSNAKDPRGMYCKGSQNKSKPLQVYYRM
Method: as §1

Q1A = target: T4, Q1A; test: as above
T4 construct: Residue number counts from the N-terminus of CD3ε; also called CD3εγ Q1A; CD3 mutant Q1A
T4 single chain CD3ε-26mer linker-CD3γ: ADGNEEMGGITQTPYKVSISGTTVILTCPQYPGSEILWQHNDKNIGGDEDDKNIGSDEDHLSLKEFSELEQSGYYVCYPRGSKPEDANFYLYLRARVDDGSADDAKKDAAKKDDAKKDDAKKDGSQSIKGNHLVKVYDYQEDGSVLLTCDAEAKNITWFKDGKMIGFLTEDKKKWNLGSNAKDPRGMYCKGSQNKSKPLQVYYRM
Method: as §1

E5A = target: T5, E5A; test: as above
T5 construct: Residue number counts from the N-terminus of CD3ε; also called CD3εγ E5A; CD3 mutant E5A
T5 single chain CD3ε-26mer linker-CD3γ: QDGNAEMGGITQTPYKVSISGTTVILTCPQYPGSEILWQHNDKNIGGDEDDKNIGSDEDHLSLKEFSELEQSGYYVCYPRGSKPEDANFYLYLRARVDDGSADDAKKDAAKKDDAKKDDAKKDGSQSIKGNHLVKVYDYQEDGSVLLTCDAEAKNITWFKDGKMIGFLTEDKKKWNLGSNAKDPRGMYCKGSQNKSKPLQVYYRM
Method: as §1

E6A = target: T6, E6A; test: as above
T6 construct: Residue number counts from the N-terminus of CD3ε; also called CD3εγ E6A; CD3 mutant E6A
T6 single chain CD3ε-26mer linker-CD3γ: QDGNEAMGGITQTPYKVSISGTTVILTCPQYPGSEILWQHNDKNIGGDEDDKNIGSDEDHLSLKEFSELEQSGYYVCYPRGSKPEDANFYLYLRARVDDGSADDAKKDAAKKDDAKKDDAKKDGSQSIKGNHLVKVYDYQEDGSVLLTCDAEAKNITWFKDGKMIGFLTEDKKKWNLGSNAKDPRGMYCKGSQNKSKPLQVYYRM
Method: as §1

G9A = target: T7, G9A; test: as above
T7 construct: Residue number counts from the N-terminus of CD3ε; also called CD3εγ G9A
T7 single chain CD3ε-26mer linker-CD3γ: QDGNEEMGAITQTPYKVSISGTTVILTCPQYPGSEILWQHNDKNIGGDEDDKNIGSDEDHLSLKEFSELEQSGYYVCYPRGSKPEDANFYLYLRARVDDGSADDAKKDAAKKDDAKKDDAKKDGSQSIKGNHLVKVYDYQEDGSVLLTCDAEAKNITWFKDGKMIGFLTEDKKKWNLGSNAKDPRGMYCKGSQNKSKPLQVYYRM
Method: as §1

G3A = target: T8, G3A; test: as above
T8 construct: Residue number counts from the N-terminus of CD3ε; also called CD3εγ G3A; CD3 mutant G3A
T8 single chain CD3ε-26mer linker-CD3γ: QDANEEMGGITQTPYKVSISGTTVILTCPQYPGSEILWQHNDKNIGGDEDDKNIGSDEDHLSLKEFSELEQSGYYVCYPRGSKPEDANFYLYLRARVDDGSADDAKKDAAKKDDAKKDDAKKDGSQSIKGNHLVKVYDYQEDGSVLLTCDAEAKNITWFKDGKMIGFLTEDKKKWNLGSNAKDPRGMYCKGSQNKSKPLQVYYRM
Method: as §1

Kd [1]: 0.5 nM
Kd (M7A): 13 nM
Kd (N4A): 3 nM
Kd (Q1A): 1000 nM
Kd (E5A): 7 nM
Kd (E6A): 65 nM
Kd (G9A): 6 nM
Kd (G3A): 7 nM
B1: hu38E4.v1 Fab (Fab, V domains shown)
VH: EVQLVQSGAEVKKPGASVKVSCKASGFTFTSYYIHWVRQAPGQGLEWIGWIYPENDNTKYNEKFKDRVTITADTSTSTAYLELSSLRSEDTAVYYCARDGYSRYYFDYWGQGTLVTVSS
VL: DIVMTQSPDSLAVSLGERATINCKSSQSLLNSRTRKNYLAWYQQKPGQSPKLLIYWTSTRKSGVPDRFSGSGSGTDFTLTISSLQAEDVAVYYCKQSFILRTFGQGTKVEIK
notes: Humanized anti-CD3 Fab; Point mutants of it were expressed as Fabs in HEK293 cells
